Measured values from patent publication US20240245805A1 (Orna Therapeutics, Inc., priority 2020, published 2024).

B1: Tottorivirus (nucleic acid, listed as Tottorivirus sp.)
DNA: CCCCTTTACGTAACTGCAACTTAAAGAGTACCCTACTGCATTGGATGTGTGGTAAACTTTTACGCACACATTTGTAGTAGTGTTAGTTATGTTCTACCTAATGAGTATGCATGCACCCGTCGAAACACGCTTGTGATAAGATAGGTGAGTCCATGTGACTAATCTCATTAAGATAAATAAGCACCCTACAACGCACGGCACGCTCGTGTCTTCCGTGCGGGGCCGGGACAACAGCGGCCTAAATCTTCTAGGTGACCACCATGCTTTTGGGACTATGGCACCACTGTGGACGTGAGTACCTGGCAGTAAGTCTGTGAAAAGATGGAAGGTGTCCCAAGCTATGGGGCGTATGCATATAGCCTGCGGAACAAACAACGGCGACGTTGTCCCCAGGGCCCAAAAGGCACGTGGATAAGATCCACCTATATGTTTACCCCATAGTGTAAGTCACTGGAAGTCCTAGTAATGGATGTCTGGAGTAAGGCTCACGGGGTAGGGCGAAGGATGCCCAGAAGGTACCCGTAGGTAACCTTAAGAGACTATGGATCTGATCTGGGGACCGGATGGCGCCATCACCATGACGTGGAGGCCGGTTTAAAAAACGTCTAAGCCCGACCAACAACCTAGGGGACTAGGTTTTCCTTTTTTATTCATGTATGACGTT
B2: Taura Syndrome Virus: "an IRES is an IRES sequence of Taura syndrome virus" (nucleic acid)
DNA: CTTTAAAAGTCGTGCGTGGCTTCACCACGCACGATCAGTACTATCAGTTAACCACTCTTGAATATGCTCAATGACCCTATTCAACACTGGTGTCTCTTAGTACATTATTTTAGCACTTAACGTGCATGAGTTTTGCCCATTTCTTTCAAAAAAATGAGTATTCGAGGAGACGTCCCGCTCCCCGTCTTATTTCAACCGTAGACTCGACATCTATTGGTGGACATTTAATTCCAGTCGCCGTAAGTTGCTTCTGCCCCGCGCTATATTTTCTTATACTTATGGTTCTATAGGTCTGGTTTAAAACGTAAATAGACGGCCCACAAACTATAGAACGCGTACCCGGAACGCCAATCCCGGATAAGTCCCTGGATATATAGATGCACCGCAATATAAGCCTGCAGACTGTCTCATATACT
modifications: Taura Syndrome Virus
B3: TRV NGS910 (nucleic acid)
DNA: ATGCGACGTGGTTGGAGATTAAACCGACTCCGACGAAAGTGCTATCATGCCTCCCCGATTATGTGATGTTTTCTGCCCTGCTGGGCGGAGCATTCTCGGGTTGATACACCTTGAATCCTTCATCCTTGGACCTCAGGTCCCCCGGTCTAAGCCGCTTGGAATACGACAGGGTTATTTTCCAATCTTCTCCTTTCTACTTTCATGAGTCCTATTCATGAAAAGGGTCTGTGCTGCCCCTTCCTTCTTGGAGAATCTGCGCGGCGGTCTTTCCGTCTCTCGAAAAGCGCAGATGCAGCATGCTGGAACCGGTGAAGAAAACAGTTCTTTGTGGAAACTTAGAGCAGACATCGAAACAGCTGTAGTGACCTCACAGTAGCAGCGGAACCCCCTCCTGGTAACAGGAGCCTCTGCGGCCAAAAGCCCCGTGGATAAGATCCACTGCTGTGAGCGGTGCAACCCCAGCACCCTGGTTCGATGGTTGTTCTCTGTGGAACCAGAGAATGGTCTTTCTCAAGCCCTCCAGTAGAGAAGCCAAGAATGTCCTGAAGGTACCCCGCATGCGGGATCTGATCAGGAGACCAATCGTCAGTGCTTTACACTGGCGCTTTGGTTTAAAAACTGTCACAGCTTCTCCAAACCAAGTGGTCTTGGTTTTCACTTTTATCAAACTGTTTC
modifications: lipid formulation; source: /note="Description of Unknown: TRV NGS910 sequence"
B4: Hunnivirus A1 (nucleic acid, listed as Hunnivirus sp.)
DNA: TAACGTTTGGCAAGAACCCTCACCTGTCAATTGGGACCACCACTTTCAGTGACCCCATGCGAAGTAGTGAGAGAGAATAAGCTTTCTTACCCTTCATTTGTGAACCCTTCAGTCGAAGCCGCTTGGAATAAGATAGGAGGAAAAGTTCATTCTAAATGGAGTGAAACATGTACTTCAGAATTTCTAGCACGCGCTGGGCTTTCTTGCGTGTGACGGCACTGTCTTGCCGGAGCTCTCCACACTGACACCCCACGCTTGTGGACCTTGGTGGCAGATGACAACACTGCAGCTGGAATTGAGTGTCTGGTACACTCTGTGTAACAGTGAAAACAATGTGATCACTTCGGTGAGCTAGTAGCCTGTGGACCAACAACTGGTAACAGTTGCCTCAGGGGCCAAAAGCCACGGTGTTTACAGCACCCTACTGGTTTGATTGGAGCAATCCAAGATGTCACAGAGTTAGTAATTGCCAAGCAGTCCGTACTGGTATCTTGACATACCGTGCAGTTTTGGATAGTGAAGGATGCCCTGACGGTACCCATAGGTAACAAGTGACACTATGGATCTAAGCAGGGGCTCACTCTACGCTGCTTTACAGCTGGCTGTGAGTTAAAAAACGTCTAGCTATCCACAACCTAGGGGACTAGGTTTTCCTTTTATTTAGATTACAATTAT
B5: Hunnivirus A2 (nucleic acid, listed as Hunnivirus sp.)
DNA: ACAGTTTTTGACAAGGACCCTCACCTGTCAATCGGGACCACCACTTTCAGTGACCCCGTGCGAAGTGTTGAGAGAAAGTGAGCTTTCTTACCCTTCATTTGTGAACCCTTCAGTCGAAGCCGCTTGGAATAAGATGGAAGGAAATGTTCATTCTAAATGGAGTGAAACATATACTTAATTTCCAGTGTTTAGTGGTCTTTCCACTAGACAACGGCACTGTCTTGCCGGAACTCTACACACCAACATTCCACGCTTGTGGGACTCAAATGTTGGATGACACAGTTGTAGCTGGAACTGAGTGTTTAGTGCACTCTGTGTAACAGTGAAAACAATGTGATCACTTCGGTGGGCTAGTAGCCTGTGGACTAACAACTGGTAACAGTTGCCTCAGGGGCCAAAAGCCACGGTGTTAACAGCACCCTACTAGTTTGATTGGAGCAATCCATGATGTTACAGAGTTAGTAACTGCCAAACAGATTGTACTGGTATCTTGGCATACCGTGCAACTTAGGATAGTGAAGGATGCCCTGGCGGTACCCATAGGTAACAAGTGACACTATGGATCTAAACAGGGGCTCACTCTACGTTGCTTTACAACTAGCTGTGAGTTAAAAAACGTCTAACTATCCACAACCTAGGGGACTAGGTTTTCCTTTTTATTTTTATACACAACTA
B6: GFTV (nucleic acid)
chain: ATGGGGAAGGGTATGACGTGCCCCTTCCTTCTTCGGAGAACTCGCTCTAGTGGTCTTTCCACTTCTGGAAAAGAGTGAGTGCACGTGATCAGGACCGTCGAAGACGACAAATACCTGGTGCTCTATCTCATAGACGTTTCACAGCTGTAGCGACCCCTCAGTAGCAGCGGAAGCCCCCTCCTGGTGACAGGAGCCTCTGCGGCCAAAAGCCACGTGGATAAGATCCACTGCTGAGGGCGGTGCGACCCTAGCACCCTGTGATGCATACTAGTTGTAGCGTGCCGGACTATTGGTCTGTCATAAGACACCTGATAGAGAGACCAAGAATGTCCTGGAGGTACCCCGCGTGCGGGATCTGACCAGGAGACCATTGCCCAATGCTTTACAACGGGTCTATGGTTTAAAAACTGTCGCAGTCTCTCCAAACCAAGTGGTCTTGGTTTTCAATTACTTTGAATATTTCACT
modifications: lipid formulation; source: /note="Description of Unknown: GFTV sequence"
B7: Ia Io (nucleic acid)
DNA: GGTGTCCGGGTGTGTGGGATAGACCCAGATGTGCAGTGGATGCGAGCATTTGAGTCAGAGTAGGAGCAAGCCCAGGGGCAAAGGGACCACATTGTGTATCCCGAATGAAGGATCGAGATTTCTCTCCTCATTACCCGGTGTCTTGTCACTGTTGGGGGGGCCCAACAGTCTTAGTCCTATACTGCCTGATAGGGTCGCGGCTGGCCGGACTCAAGTGCTATAGTCAGTTGATTTTCACTC
modifications: source: /note="Description of Unknown: Ia Io sequence"
B8: EV A114 (nucleic acid, listed as Enterovirus sp.)
chain: TGTGCGCCTGTTTTGAAACCCCCTCCCCCAACTCGAAACGTAGAAGTAATGTACACTACTGATCAGTAGCAGGCGTGGCGCACCAGCCATGTCTCGATCAAGCACTTCTGTTTCCCCGGACTGAGTATCAATAGACTGCTCACGCGGTTGAAGGTGAAAACGTCCGTTACCCGGCTAACTACTTCGAGAAACCTAGTAGCACCATAGAAACTGCAGAGTGTTTCGCTCAGCACTTCCCCCGTGTAGATCAGGTCGATGAGTCACTGCAATCCCCACGGGTGACCGTGGCAGTGGCTGCGTTGGCGGCCTGCCTATGGGGCAACCCATAGGACGCTCTAAGGTGGACATGGTGTGAAGAGTCTATTGAGCTAGTTAGTAGTCCTCCGGCCCCTGAATGCGGCTAATCCTAACTGTGGAGCGCATACTCCCAAACCAGGGAGCAGTGCGTCGTAACGGGCAACTCCGCAGCGGAACCGACTACTTTGGGTGTCCGTGTTTCCTTTTATTCCTATACTGGCTGCTTATGGTGACAATTGAGAGATTGTTACCATATAGCTATTGGATTGGCCATCCAGTGTGTAATAGAGCAATCATTTACCAATTTGTTGGATTTACTCCATTAACCCACACGTCTCTCAACACACTACATTTCATCTTACTACTGAACACTAGAAA
modifications: lipid formulation
B9: VHEV (nucleic acid)
DNA: AATTCCTTCTTCCTTTCTCCTTGGACCTCGGTCCCCCGGTCTAAGCCGCTCGGAATATGACAGGGTTATTTTCACCTCTTCTCTCTTCTACTTCATAGTGTTCTATACTATGAAAGGGTATGTGTCGCCCCTTCCTTCTTGGAGAACGTGCGTGGCGGTCTTTCCGTCTCTCGAAAAACGTGCGTGCGACATGCAGAGTAACGCAAAGAAAGCAGTTCTTGGTCTAGCTCTGGTGCCCACAAGAAAACAGCTGTAGCGACCACACAAAGGCAGCGGAAACCCCCTCCTGGTAACAGGAGCCTCTGCGGCCAAAAGCCACGTGGATAAGATCCACCTTTGTGTGCGGTGCAACCCCAGCACCCTGGTTTCTTGGTGACACCTTAGTGAACCCTCGAATGGCAATCTCAAGCGCCTCTGTAGGAAAGCCAAGAATGTCCAGGAGGTACCCCTTCCTCATGGAGGGATCTGACCTGGAGACACATCACACGTGCTATACACTTGTGCTTGTGTTTAAAAATTGTCACAGCTTTCCCAAACCAAGTGGTCTTGGTTTTCCCTTAACTTCGAAAAGTCACTATGGCCTGCAAACATGGATACCCAGACGTGTGCCCT
modifications: source: /note="Description of Unknown: VHEV sequence"

These molecules were tested on HEK293 cells. Details: circular RNA encoding Gluc with the listed IRES (UTR truncated to 675 nt) transfected into HEK293 cells; supernatant after 24 hours.
Format: cell-based, human

Which “Expression (luminescence from secreted Gluc protein)” value (shortened to “Expression”) does the source give for B1 here?
The value was 2.76E+07.

For B2, which “Expression” value is on record?
The value was 8.30E+05.

Which “Expression” value does the source give for B3 here?
Its value is 3.84E+07.

For B4, which “Expression” value is on record?
Its value is 1.61E+06.

For B5, which “Expression” value is on record?
The value was 6.38E+06.

With B6 as the molecule, how does the “Expression” value read?
The value was 1.23E+06.

How did the “Expression” value turn out when B7 was run?
Its value is 1.35E+06.

With B8 as the molecule, how does the “Expression” value read?
Its value is 1.50E+08.

Which “Expression” value does the source give for B9 here?
Its value is 1.74E+08.
